This series has as its target CD44, P16070.

Chain of CD44, P16070 (P16070 other isoform, or with tags, fused parts or gaps): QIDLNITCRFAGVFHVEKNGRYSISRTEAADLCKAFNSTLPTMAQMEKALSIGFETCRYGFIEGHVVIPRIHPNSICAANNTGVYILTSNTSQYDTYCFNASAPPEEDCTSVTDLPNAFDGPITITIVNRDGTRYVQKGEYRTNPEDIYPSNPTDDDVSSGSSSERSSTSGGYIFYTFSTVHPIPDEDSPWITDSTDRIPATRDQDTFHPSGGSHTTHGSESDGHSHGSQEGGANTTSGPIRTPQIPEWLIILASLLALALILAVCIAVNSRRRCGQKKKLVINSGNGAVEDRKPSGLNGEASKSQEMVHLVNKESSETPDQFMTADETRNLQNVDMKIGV

B1: Matrix Metalloproteinase-9 (MMP-9), wild type (protein)
chain: APRQRQSTLVLFPGDLRTNLTDRQLAEEYLYRYGYTRVAEMRGESKSLGPALLLLQKQLSLPETGELDSATLKAMRTPRCGVPDLGRFQTFEGDLKWHHHNITYWIQNYSEDLPRAVIDDAFARAFALWSAVTPLTFTRVYSRDADIVIQFGVAEHGDGYPFDGKDGLLAHAFPPGPGIQGDAHFDDDELWSLGKGVVVPTRFGNADGAACHFPFIFEGRSYSACTTDGRSDGLPWCSTTANYDTDDRFGFCPSERLYTQDGNADGKPCQFPFIFQGQSYSACTTDGRSDGYRWCATTANYDRDKLFGFCPTRADSTVMGGNSAGELCVFPFTFLGKEYSTCTSEGRGDGRLWCATTSNFDSDKKWGFCPDQGYSLFLVAAHEFGHALGLDHSSVPEALMYPMYRFTEGPPLHKDDVNGIRHLYGPRPEPEPRPPTTTTPQPTAPPTVCPTGPPTVHPSERPTAGPTGPPSAGPTGPPTAGPSTATTVPLSPVDDACNVNIFDAIAEIGNQLYLFKDGKYWRFSEGRGSRPQGPFLIADKWPALPRKLDSVFEERLSKKLFFFSGRQVWVYTGASVLGPRRLDKLGLGADVAQVTGALRSGRGKMLLFSGRRLWRFDVKAQMVDPRSASEVDRMFPGVPLDTHDVFQYREKAYFCQDRFYWRVSSRSELNQVDQVGYVTYDILQCPED
Consider B1, for which the “phosphorylation of EGFR, western blotting” value is listed as “expression of MMP-9 in wild type COS-1 cells resulted in increased phosphorylation of EGFR as compared to vector control. This activation of EGFR did not occurred in CD44-silenced COS-1 cells transfected with MMP-9 cDNA”.

These data come from patent publication US20130012451.
